Laboratory results reported in patent US20110206660A1 (Ablynx, published 2011).

How the values were obtained:
[1] = biological target: T1, human CXCR4 (human, UniProt P61073-2 2-356); test: competition binding vs [125I]-CXCL12, HEK293T-CXCR4 membranes
[2] = biological target: T1, human CXCR4; test: competition binding vs [125I]-238D2, HEK293T-CXCR4 membranes
[3] = biological target: T1, human CXCR4; test: competition binding vs [125I]-238D4, HEK293T-CXCR4 membranes
[4] = biological target: T1, human CXCR4; test: competition binding vs [125I]-CXCL12, HEK293T-CXCR4 membranes; purified Nanobody up to 0.5 µM, tracer [125I]-CXCL12
[5] = biological target: T1, human CXCR4; test: competition binding vs [125I]-238D4, HEK293T-CXCR4 membranes; purified Nanobody up to 0.5 µM, tracer [125I]-238D4
[6] = biological target: T1, human CXCR4; test: periplasm fraction (1:10), inhibition of [125I]-CXCL12 binding, HEK293T-CXCR4 membranes; - = 0-29%, + = 30-69%, ++ = 70-100%; periplasma fraction in the clone screen, tracer [125I]-CXCL12; 30-69% inhibition
[7] = biological target: T1, human CXCR4; test: competition binding vs [125I]-238D2, HEK293T-CXCR4 membranes; purified Nanobody up to 0.5 µM, tracer [125I]-238D2
[8] = biological target: constitutively active CXCR4 mutant N119A (UniProt P61073 1-352); test: cell-based or functional assay
[9] = biological target: T2, CXCR3 (UniProt P49682 1-368); test: total binding of [125I]-238D2 to membranes of HEK293T cells expressing CXCR4 or CXCR3, without (-) and with 3 µM AMD3100
T2 construct: whole, on cells; also called chemokine receptor CXCR3
T2 sequence (looked up): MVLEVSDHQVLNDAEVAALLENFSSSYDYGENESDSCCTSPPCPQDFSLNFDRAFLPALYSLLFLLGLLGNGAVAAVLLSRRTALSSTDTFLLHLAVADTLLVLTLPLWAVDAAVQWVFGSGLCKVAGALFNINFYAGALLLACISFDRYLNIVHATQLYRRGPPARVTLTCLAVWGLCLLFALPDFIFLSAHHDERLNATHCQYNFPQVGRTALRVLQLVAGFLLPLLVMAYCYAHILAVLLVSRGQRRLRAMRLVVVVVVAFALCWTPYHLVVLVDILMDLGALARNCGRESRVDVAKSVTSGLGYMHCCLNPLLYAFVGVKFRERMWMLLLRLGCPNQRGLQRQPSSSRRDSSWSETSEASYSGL

[10] = biological target: T2, CXCR3; test: total binding of [125I]-238D4 to membranes of HEK293T cells expressing CXCR4 or CXCR3, without (-) and with 3 µM AMD3100
[11] = biological target: T1, human CXCR4; test: cell-based or functional assay
[12] = biological target: T1, human CXCR4; test: cell-based or functional assay; remark: listed apart in the source
[13] = biological target: T1, human CXCR4; test: competition with [125I]-CXCL12, membranes of HEK293T cells expressing CXCR4
[14] = biological target: T1, human CXCR4; test: competition with [125I]-238D4, membranes of HEK293T cells expressing CXCR4
[15] = biological target: T1, human CXCR4; test: competition with [125I]-238D2, membranes of HEK293T cells expressing CXCR4
[16] = biological target: T1, human CXCR4; test: competition binding vs [125I]-CXCL12, HEK293T-CXCR4 membranes
[17] = biological target: T1, human CXCR4; test: as above; remark: listed apart in the source

T1 sequence (P61073 other isoform, or with tags, fused parts or gaps): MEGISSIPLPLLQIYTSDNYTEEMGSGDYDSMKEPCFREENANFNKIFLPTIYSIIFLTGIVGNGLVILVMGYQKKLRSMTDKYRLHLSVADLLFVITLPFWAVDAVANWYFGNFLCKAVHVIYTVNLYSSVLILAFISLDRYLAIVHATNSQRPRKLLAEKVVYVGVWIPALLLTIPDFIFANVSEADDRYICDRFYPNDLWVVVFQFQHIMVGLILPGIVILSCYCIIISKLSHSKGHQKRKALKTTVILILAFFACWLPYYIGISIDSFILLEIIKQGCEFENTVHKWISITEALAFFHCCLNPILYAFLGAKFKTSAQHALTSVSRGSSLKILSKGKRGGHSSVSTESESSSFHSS
Sequence of constitutively active CXCR4 mutant N119A (P61073 whole entry N119A): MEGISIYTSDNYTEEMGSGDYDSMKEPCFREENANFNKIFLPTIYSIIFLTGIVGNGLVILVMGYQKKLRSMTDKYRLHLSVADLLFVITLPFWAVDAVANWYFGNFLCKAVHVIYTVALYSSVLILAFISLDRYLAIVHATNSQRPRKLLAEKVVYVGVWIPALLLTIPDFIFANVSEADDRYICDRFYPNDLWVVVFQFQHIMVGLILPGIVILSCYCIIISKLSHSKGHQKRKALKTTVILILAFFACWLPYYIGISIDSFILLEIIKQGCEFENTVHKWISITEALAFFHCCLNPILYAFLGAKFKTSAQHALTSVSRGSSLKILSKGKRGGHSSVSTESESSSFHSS

Molecule: monoclonal antibody 12G5
- maximal displacement [1]: 54%
- pKi [1]: 9.19
- maximal displacement [2]: 89%
- pKi [2]: 9.65
- maximal displacement [3]: 90%
- pKi [3]: 9.31

B1: Nanobody 237G7 (VHH)
VHH: EVQLVESGGGLVQPGGSLRLSCAASSFIGNYHAIVWLRQAPGKELEGVSCITSRDSITYYASFVKGRFTISRDDAKNTVYLQMNNLKPEDTAVYYCAVBTSMTCPTLIVRFNYRGQGTQVTVSS
notes: Monovalent VHH
- pKi [4]: < 6.3
- pKi [5]: < 6.3
- percent inhibition of specific [125I]-CXCL12 binding [6]: 30 to 69%
- pKi [7]: < 6.3

B2: Nanobody 237D1 (VHH)
VHH: EVQLVESGGGLAQPGGPLRLTCEASGVIYSVNDMGWYRQAPGKQRELVAVITSGGGTNYVDSVKGRFTISGDNRKKTVYLQMNSLKPEDTAVYYCSIYYSSGISTLRSWGQGTQVTVSS
notes: Monovalent VHH
- pKi [4]: < 6.3
- pKi [5]: < 6.3
- percent inhibition of specific [125I]-CXCL12 binding [6]: 30 to 69%
- pKi [7]: < 6.3

B3: 238D2-20GS-238D4 (VHH)
chain: EVQLVESGGGLVQTGGSLRLSCAASGFTFSSYAMSWVRQAPGKGLEWVSGIKSSGDSTRYAGSVKGRFTISRDNAKNMLYLQMYSLKPEDTAVYYCAKSRVSRTGLYTYDNRGQGTQVTVSSGGGGSGGGGSGGGGSGGGGSEVQLMESGGGLVQAGGSLRLSCAASGRTFNNYAMGWFRRAPGKEREFVAAITRSGVRSGVSAIYGDSVKDRFTISRDNAKNTLYLQMNSLKPEDTAVYTCAASAIGSGALRRFEYDYSGQGTQVTVSS
- reduction of the constitutively increased basal inositol phosphate accumulation, HEK293T-CXCR4 (N119A) [8]: 65%

B4: 238D2-15GS-238D4 (VHH)
chain: EVQLVESGGGLVQTGGSLRLSCAASGFTFSSYAMSWVRQAPGKGLEWVSGIKSSGDSTRYAGSVKGRFTISRDNAKNMLYLQMYSLKPEDTAVYYCAKSRVSRTGLYTYDNRGQGTQVTVSSGGGGSGGGGSGGGGSEVQLMESGGGLVQAGGSLRLSCAASGRTFNNYAMGWFRRAPGKEREFVAAITRSGVRSGVSAIYGDSVKDRFTISRDNAKNTLYLQMNSLKPEDTAVYTCAASAIGSGALRRFEYDYSGQGTQVTVSS
- reduction of the constitutively increased basal inositol phosphate accumulation, HEK293T-CXCR4 (N119A) [8]: 64%

B5: Nanobody 238D2 (VHH)
VHH: EVQLVESGGGLVQTGGSLRLSCAASGFTFSSYAMSWVRQAPGKGLEWVSGIKSSGDSTRYAGSVKGRFTISRDNAKNMLYLQMYSLKPEDTAVYYCAKSRVSRTGLYTYDNRGQGTQVTVSS
notes: Monovalent llama VHH; Tested as phage, as periplasm fraction and purified; also called 238C1; 238C1, D2
- binding result [9]: no binding (tested: 3 nM)

B6: Nanobody 238D4 (VHH)
VHH: EVQLMESGGGLVQAGGSLRLSCAASGRTFNNYAMGWFRRAPGKEREFVAAITRSGVRSGVSAIYGDSVKDRFTISRDNAKNTLYLQMNSLKPEDTAVYTCAASAIGSGALRRFEYDYSGQGTQVTVSS
notes: Monovalent llama VHH; also called 238G3; 238D4, G3
- reduction of the constitutively increased basal inositol phosphate accumulation, HEK293T-CXCR4 (N119A) [8]: 49%
- binding result [10]: no binding (tested: 3 nM)
- migration of Jurkat cells towards 0.3 nM CXCL12 (ChemoTx): IC50 (read off the curve) [11]: ~8 nM
- CRE activation, HEK293T-CXCR4-CREbgal/0.01-100 nM CXCL12: pKi or pIC50 (pKB from the Schild plot by the text) [12]: 7.7
- Chemotaxis, Jurkat/0.3 nM CXCL12: pKi or pIC50 [12]: 8.31
- IP accumulation, HEK293T-CXCR4-Gαqi5/30 nM CXCL12: pKi or pIC50 [12]: 8.39
- pKi [2]: 8.8
- pKi [3]: 8.55
- IC50 (read off the curve) [13]: ~10 nM
- IC50 (read off the curve) [14]: ~4 nM
- IC50 (read off the curve) [15]: ~3 nM
- maximal displacement [16]: 99%
- pKi [16]: 8.22

B7: Nanobody 238C5 (VHH)
VHH: EVQLMESGGGLVQAGGSLRLACAASGFTFEDYAIGWFRKAPGKEREGVSCISGSDGSTTYADSVKGRFTISTDNAKNTVYLEMNSLKPEDTAVYYCAQQYGVGGRVVCPGPYEYDVWGQGTQVTVSS
notes: Monovalent VHH; also called 238C5, G2, xH5, 238C3, D6, E6
- pKi [2]: < 7
- pKi [3]: < 7
- maximal displacement [16]: 0%
- pKi [16]: < 6.3

B8: 238D4-20GS-238D4 (VHH)
chain: EVQLMESGGGLVQAGGSLRLSCAASGRTFNNYAMGWFRRAPGKEREFVAAITRSGVRSGVSAIYGDSVKDRFTISRDNAKNTLYLQMNSLKPEDTAVYTCAASAIGSGALRRFEYDYSGQGTQVTVSSGGGGSGGGGSGGGGSGGGGSEVQLMESGGGLVQAGGSLRLSCAASGRTFNNYAMGWFRRAPGKEREFVAAITRSGVRSGVSAIYGDSVKDRFTISRDNAKNTLYLQMNSLKPEDTAVYTCAASAIGSGALRRFEYDYSGQGTQVTVSS
notes: Bivalent Nanobody, 20-residue GS linker; also called L13
- Rel. potency (relative to monovalent 238D4) [17]: 4.4 fold
- pKi [17]: 8.85

B9: Nanobody 237D2 (VHH)
VHH: EVQLVESGGGLVQPGGSLRLSCAASGFTFDDYAMSWVRQAPGKGLEWVSAISWNGGSTDYADSVKGRFTISRDNAKNTLYLQMNSLKSEDTAEYYCARDQGPFYSGTYYYTRQYGYRGQGTQVTVSS
notes: Monovalent VHH; also called 237B6, A5, D2, D3, E4, F4, G2, G4, xH5, 237F1, C5, G1
- pKi [4]: < 6.3
- pKi [5]: < 6.3
- pKi [7]: < 6.3

B10: Nanobody 237A6 (VHH)
VHH: EVQLVESGGGLVQAGGSLRLSCAASGSIFSLNAMGWYRQAPGKQRELVAGITSSTSTYYADSVKGRFTISRDNTKNTVYLQMNSLKPEDTAVYYCNVDCPDYYSDYECPLEDRGQGTQVTVSS
notes: Monovalent VHH
- pKi [4]: < 6.3
- pKi [5]: < 6.3
- percent inhibition of specific [125I]-CXCL12 binding [6]: 30 to 69%
- pKi [7]: < 6.3
